Assay results: article PMC10539048

Target: filamentous actin polymerized from human platelet actin (human) (UniProt P60709)
Assay: co-sedimentation

percent reduction of actin-binding activity relative to WT | Substance
43% | human MAP2C T293E (from UniProt P11137-2 1-471) (natural protein)
43% | human MAP2C T300E (from UniProt P11137-2 1-471) (natural protein)
